Experimental data reported in the Immune Epitope Database (IEDB).
pIC50, pKd: −log10 of the molar value.

How the values were obtained:
HLA-A*01:01 = assay: IEDB peptide-MHC binding, purified MHC/direct/fluorescence; filed as Kd, often an IC50 or EC50 that approximates it; ≥ and ≤ were set here for values at or beyond the usual limits of such assays
HLA-A*03:01 = assay: as above
HLA-A*11:01 [1] = assay: as above
HLA-A*24:02 [2] = assay: as above
HLA-A*31:01 = assay: as above
HLA-A*69:01 = assay: as above
HLA-B*07:02 = assay: as above
HLA-B*08:02 = assay: as above; settings: source organism: Giardia lamblia ATCC 50803
HLA-B*15:01 [3] = assay: as above
HLA-B*15:09 = assay: as above
HLA-B*18:01 [4] = assay: as above; settings: source organism: Giardia lamblia ATCC 50803
HLA-B*27:05 = assay: as above
HLA-B*40:01 [5] = assay: as above
HLA-B*44:02 [6] = assay: as above; settings: source organism: Giardia lamblia ATCC 50803
HLA-B*58:01 = assay: as above
HLA-B*18:01 [7] = assay: IEDB peptide-MHC binding, purified MHC/competitive/radioactivity; filed as Kd, often an IC50 or EC50 that approximates it; ≥ and ≤ were set here for values at or beyond the usual limits of such assays
HLA-B*40:01 [8] = assay: as above
HLA-B*40:02 = assay: as above
HLA-B*44:02 [9] = assay: as above
HLA-B*44:03 = assay: as above
HLA-B*45:01 = assay: as above
HLA-A*02:01 [10] = assay: IEDB peptide-MHC binding, purified MHC/direct/fluorescence; filed as Kd, often an IC50 or EC50 that approximates it; ≥ and ≤ were set here for values at or beyond the usual limits of such assays; settings: source organism: Influenza A virus (A/equine/New York/1/1999(H3N8))
HLA-B*08:01 = assay: as above; settings: source organism: Influenza A virus (A/equine/New York/1/1999(H3N8))
HLA-B*35:01 = assay: IEDB peptide-MHC binding, purified MHC/competitive/fluorescence; filed as Kd, often an IC50 or EC50 that approximates it; ≥ and ≤ were set here for values at or beyond the usual limits of such assays; settings: source organism: Influenza A virus (A/quail/Hong Kong/SF550/00(H6N1))
HLA-A*02:01 [11] = assay: IEDB peptide-MHC binding, purified MHC/competitive/fluorescence; ≥ and ≤ were set here for values at or beyond the usual limits of such assays; settings: source organism: Zaire ebolavirus
HLA-A*24:02 [12] = assay: as above
HLA-B*15:01 [13] = assay: as above
HLA-A*11:01 [14] = assay: as above; settings: source organism: Vaccinia virus Copenhagen
[15] = source organism: Giardia lamblia ATCC 50803
[16] = source organism: Mammarenavirus juninense
[17] = source organism: SARS coronavirus Tor2
[18] = source organism: Influenza A virus (A/equine/New York/1/1999(H3N8))
[19] = source organism: Zaire ebolavirus
[20] = source organism: Vaccinia virus Copenhagen
[21] = source organism: Lymphocytic choriomeningitis virus (strain Armstrong)

YIASIFMPR
pKd (HLA-A*01:01; [15]): ≤ 4.70 | pKd (HLA-A*03:01; [15]): 6.48 | pKd (HLA-A*11:01 [1]; [15]): 7.35 | pKd (HLA-A*24:02 [2]; [15]): ≤ 4.70 | pKd (HLA-A*31:01; [15]): 7.96 | pKd (HLA-A*69:01; [15]): ≤ 4.70 | pKd (HLA-B*07:02; [15]): ≤ 4.70 | pKd (HLA-B*08:02): ≤ 4.70 | pKd (HLA-B*15:01 [3]; [15]): ≤ 4.70 | pKd (HLA-B*15:09; [15]): ≤ 4.70 | pKd (HLA-B*18:01 [4]): ≤ 4.70 | pKd (HLA-B*27:05; [15]): ≤ 4.70 | pKd (HLA-B*40:01 [5]; [15]): ≤ 4.70 | pKd (HLA-B*44:02 [6]): ≤ 4.70 | pKd (HLA-B*58:01; [15]): ≤ 4.70

EELSMMYESL
pKd (HLA-B*18:01 [7]; [16]): 5.87 | pKd (HLA-B*40:01 [8]; [16]): 6.05 | pKd (HLA-B*40:02; [16]): 6.97 | pKd (HLA-B*44:02 [9]; [16]): 5.83 | pKd (HLA-B*44:03; [16]): 5.73 | pKd (HLA-B*45:01; [16]): 5.72

AEYKLQQGTF
pKd (HLA-B*18:01 [7]; [17]): 5.15 | pKd (HLA-B*40:01 [8]; [17]): 5.34 | pKd (HLA-B*40:02; [17]): 7.70 | pKd (HLA-B*44:02 [9]; [17]): 7.54 | pKd (HLA-B*44:03; [17]): 7.05 | pKd (HLA-B*45:01; [17]): 7.21

VAGGTSSVY
pKd (HLA-A*01:01; [18]): ≤ 4.70 | pKd (HLA-A*02:01 [10]): ≤ 4.70 | pKd (HLA-A*03:01; [18]): ≤ 4.70 | pKd (HLA-A*11:01 [1]; [18]): ≤ 4.70 | pKd (HLA-A*24:02 [2]; [18]): ≤ 4.70 | pKd (HLA-A*31:01; [18]): ≤ 4.70 | pKd (HLA-A*69:01; [18]): ≤ 4.70 | pKd (HLA-B*07:02; [18]): ≤ 4.70 | pKd (HLA-B*08:01): ≤ 4.70 | pKd (HLA-B*15:01 [3]; source organism: Influenza A virus (A/Puerto Rico/8/34/Mount Sinai(H1N1))): 6.89 | pKd (HLA-B*15:09; source organism: Influenza A virus(A/swine/Shandong/fNY/2003(H9N2))): ≤ 4.70 | pKd (HLA-B*27:05; [18]): ≤ 4.70 | pKd (HLA-B*40:01 [5]; [18]): ≤ 4.70 | pKd (HLA-B*58:01; [18]): 5.54 | pKd (HLA-B*35:01): 7.96

QAFEAGVDF
pIC50 (HLA-A*02:01 [11]): ≤ 3.32 | pIC50 (HLA-A*24:02 [12]; [19]): 4.53 | pIC50 (HLA-B*15:01 [13]; [19]): 4.51

VKYLEGHGF
pIC50 (HLA-A*02:01 [11]): ≤ 3.80 | pIC50 (HLA-A*24:02 [12]; [19]): 4.84 | pIC50 (HLA-B*15:01 [13]; [19]): ≤ 4.14

SEQSLRLVDA
pKd (HLA-B*18:01 [7]; [17]): 5.44 | pKd (HLA-B*40:01 [8]; [17]): 4.73 | pKd (HLA-B*40:02; [17]): 6.33 | pKd (HLA-B*44:02 [9]; [17]): 7.04 | pKd (HLA-B*44:03; [17]): 6.36 | pKd (HLA-B*45:01; [17]): 8.23

SQMTSTFIM
pIC50 (HLA-A*11:01 [14]): 5.80 | pIC50 (HLA-A*24:02 [12]; [20]): 5.67 | pIC50 (HLA-B*15:01 [13]; [20]): 5.76

IEVALRTLL
pKd (HLA-B*18:01 [7]; [21]): 7.11 | pKd (HLA-B*40:01 [8]; [21]): 7.19 | pKd (HLA-B*40:02; [21]): 7.26 | pKd (HLA-B*44:02 [9]; [21]): 4.84 | pKd (HLA-B*44:03; [21]): 5.43 | pKd (HLA-B*45:01; [21]): 4.74

VETVSLAGSY
pKd (HLA-B*18:01 [7]; [17]): 5.77 | pKd (HLA-B*40:01 [8]; [17]): 4.75 | pKd (HLA-B*40:02; [17]): ≤ 4.15 | pKd (HLA-B*44:02 [9]; [17]): 5.49 | pKd (HLA-B*44:03; [17]): 5.89 | pKd (HLA-B*45:01; [17]): 4.93

AEAAVKPLLA
pKd (HLA-B*18:01 [7]; [17]): ≤ 4.26 | pKd (HLA-B*40:01 [8]; [17]): 6.79 | pKd (HLA-B*40:02; [17]): ≤ 4.70 | pKd (HLA-B*44:02 [9]; [17]): 6.98 | pKd (HLA-B*44:03; [17]): 7.45 | pKd (HLA-B*45:01; [17]): 7.97
